Measurements taken from patent US20040210040A1 (PDL BIOPHARMA, published 2004).

T1: recombinant soluble human amphiregulin (human, UniProt P15514 101-198, limits assumed)
T1 construct: also called AR; human AR
T1 sequence: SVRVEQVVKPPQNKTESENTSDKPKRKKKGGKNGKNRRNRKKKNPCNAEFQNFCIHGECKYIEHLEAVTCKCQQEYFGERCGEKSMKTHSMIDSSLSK

B1: HuPAR34 (humanized PAR34, IgG1/kappa) (antibody, V domains shown)
VH: EVQLVQSGAEVKKPGASVKISCKVSGYAFTNYNMYWVRQAPGKGLEWIGYIDPYYGDPGYSQKFKGKATLTVDKSTSTAYMELSSLRSEDTAVYYCARRGNFPYYFDYWGQGTLVTVSS
VL: DIQMTQSPSSLSASVGDRVTITCKASQDINSYLSWFQQKPGKAPKTLIYRANRLVDGVPSRFSGSGSGQDYTLTISSLQPEDFATYYCLQYDEFPYTFGGGTKVEIK
B2: PAR34 (murine anti-amphiregulin monoclonal antibody) (antibody, mouse IgG2b, V domains shown)
VH: EIQLQQSGPELVKPGASVKVSCKASGYAFTNYNMYWVKQSHGKSLEWIGYIDPYYGDPGYSQKFKGKATLTVDKSSSTAYMHLNSLTSEDSAVYYCARRGNFPYYFDYWGQGTTLTVSS
VL: DIKMTQSPSSMYASLGERVTITCKASQDINSYLSWFQQKPGKSPKTLIYRANRLVDGVPSRFSGSGSGQDYSLTISSLEYEDMGIYYCLQYDEFPYTFGGGTKLEIK

Key:
[1] = target: T1, recombinant soluble human amphiregulin; assay: SPR (BIAcore 3000)
Protocol: (§1) Affinities between human amphiregulin (AR) and PAR34 or HuPAR34 were analyzed using BIAcore 3000 (BLAcore, Sweden).
(§2) The BIAcore analysis may be conducted according to the following protocol. PAR34 or HuPAR34 is immobilized on the Pioneer F1 chip using standard amine coupling kit (BIAcore). Surface plasmon resonance is measured at a flow rate of 50 μl/min at 24° C. Injection of AR (association phase) occurs over 180 seconds. Dissociation is subsequently monitored over 3 hours. Kinetics of binding (ka and kd) are calculated from data acquired at five different concentrations of analyte (320 nM, 160 nM, 80 nM, 40 nM, 20 nM), using the BIAevaluation program. Double-referencing is applied to eliminate responses from reference surface and buffer only control. The binding affinity, KD, is obtained by simultaneously fitting the association and dissociation phases of the sensorgram from the analyte concentration series.

[2] = target: T1, recombinant soluble human amphiregulin; assay: cell-based or functional assay
[3] = target: T1, recombinant soluble human amphiregulin; assay: competition ELISA against biotinylated PAR34, Exp. A
Protocol: (§3) The affinity of HuPAR34 to human amphiregulin was analyzed by competition ELISA. MaxiSorp ELISA plates (Nalge Nunc International) were coated overnight at 4° C. with 100 μl/well of 0.5 μg/ml recombinant soluble human amphiregulin in 0.2 M sodium carbonate-bicarbonate buffer, pH 9.4, washed with Wash Buffer (PBS containing 0.1% Tween 20), and blocked for 15 min at room temperature with 200 μl/well of SuperBlock Blocking Buffer in TBS (Pierce Chemical Company). After washing with Wash Buffer, a mixture of biotinylated PAR34 (0.125 μg/ml final concentration) and competitor antibody (PAR34 or HuPAR34 starting at 75 μg/ml final concentration and serially diluted 3-fold) in 100 μl/well of ELISA buffer was added in triplicate. As a control, 100 μl/well of 75 μg/ml of humanized anti-CD33 IgG1/κ monoclonal antibody HuM195 (Co, M. S. et al., J. Immunol., 148: 1149-1154 (1992)) in ELISA buffer was used. As a no-competitor control, 100 μl/well of ELISA Buffer was used. After incubating the plates for 1 hr and washing with Wash Buffer, bound antibodies were detected using 100 μl/well of 1 μg/ml HRP-conjugated streptavidin (Pierce Chemical Company) in ELISA buffer. After incubating for 0.5 hr at room temperature and washing with Wash Buffer, color development was performed by adding 100 μl/well of ABTS substrate (KPL, Inc.). […] Absorbance was read at 415 nm. […]

[4] = target: T1, recombinant soluble human amphiregulin; assay: competition ELISA against biotinylated PAR34, Exp. B
Protocol: as §3

[5] = target: T1, recombinant soluble human amphiregulin; assay: competition ELISA against biotinylated PAR34, Exp. C
Protocol: as §3

[6] = target: T1, recombinant soluble human amphiregulin; assay: competition ELISA against biotinylated PAR34, Exp. D
Protocol: as §3

[7] = target: T1, recombinant soluble human amphiregulin; assay: SPR (BIAcore 3000), antibody immobilized, AR as analyte
Protocol: as §1, §2

[8] = target: T1, recombinant soluble human amphiregulin; assay: competition ELISA against biotinylated PAR34, average of Exp. A-D
Protocol: as §3

[9] = target: T1, recombinant soluble human amphiregulin; assay: competition ELISA on coated recombinant soluble human amphiregulin, competitor against biotinylated PAR34, Exp. A
Protocol: as §3

[10] = target: T1, recombinant soluble human amphiregulin; assay: competition ELISA on coated recombinant soluble human amphiregulin, competitor against biotinylated PAR34, Exp. B
Protocol: as §3

[11] = target: T1, recombinant soluble human amphiregulin; assay: competition ELISA on coated recombinant soluble human amphiregulin, competitor against biotinylated PAR34, Exp. C
Protocol: as §3

[12] = target: T1, recombinant soluble human amphiregulin; assay: competition ELISA on coated recombinant soluble human amphiregulin, competitor against biotinylated PAR34, Exp. D
Protocol: as §3

[13] = target: T1, recombinant soluble human amphiregulin; assay: competition ELISA on plate-coated recombinant soluble human amphiregulin; competes with biotinylated PAR34
Protocol: as §3

[14] = target: T1, recombinant soluble human amphiregulin; assay: competition ELISA on coated recombinant soluble human amphiregulin, competitor against biotinylated PAR34, average of Exp. A-D
Protocol: as §3

| fold difference of affinity, HuPAR34 against PAR34 [1] [fold] | IC50 of inhibition of AR-mediated proliferation in 3T3 cells [2] [µg/mL] | fold difference of IC50, HuPAR34 against PAR34 [3] [fold] | fold difference of IC50, HuPAR34 against PAR34 [4] [fold] | fold difference of IC50, HuPAR34 against PAR34 [5] [fold] | fold difference of IC50, HuPAR34 against PAR34 [6] [fold] | Kd [7] [nM] | koff [7] [s⁻¹] | kon [7] [M⁻¹ s⁻¹] | fold difference of IC50, HuPAR34 against PAR34 [8] [fold] | IC50 [9] [µg/mL] | IC50 [10] [µg/mL] | IC50 [11] [µg/mL] | IC50 [12] [µg/mL] | IC50 (read off the curve) [13] [µg/mL] | IC50 [14] [µg/mL] | Binder |
| --- | --- | --- | --- | --- | --- | --- | --- | --- | --- | --- | --- | --- | --- | --- | --- | --- |
| ≤ 2 | 0.055 | 2.4 | 1.4 | 1.4 | 2 | 0.53 | 0.00823 | 1.26e+07 | 1.8 | 1.95 | 1.11 | 1.76 | 2.76 | ~2 | 1.9 | B1 |
|  | 0.025 |  |  |  |  | 0.41 | 0.024 | 4.8e+07 |  | 0.82 | 0.78 | 1.3 | 1.39 | ~1 | 1.07 | B2 |
